Measured values as given in the DeepSol protein solubility set.

Test: soluble on expression in E. coli; label from the status in PepcDB or PDB records

Sequence | soluble on expression in E. coli
SQLVECVPNFSEGKNQEVIDAISRAVAQTPGCVLLDVDSGPSTNRTVYTFVGRPEDVVEGALNAARAAYQLIDMSRHHGEHPRMGALDVCPFIPVRGVTMDECVRCAQAFGQRLAEELGVPVYLYGEAARTAGRQSLPALRAGEYEALPEKLKQAEWAPDFGPSAFVPSWGATVAGARKFLLAFNINLLSTREQAHRIALDLREQGRGKDQPGRLKKVQAIGWYLDEKNLAQVSTNLLDFEVTGLHTVFEETCREAQELSLPVVGSQLVGLVPLKALLDAAAFYCEKENLFLLQDEHRIRLVVNRLGLDSLAPFKPKERIIEYLV | soluble
MSLDSRTELKEIAGVAKRLTLLYVEDDIPTRRFLKRRLEEIFGVVAEAANGEEGLKRFLQGGIDLVISDNIMPFMDGIEMIREIRRVDTRLPIILTTAFIDTDYLMEAINLGVTQFVAKPISMDLLHNAIQMAIQRVVLDNLTRKAKEQEIELLRFQDRYHSLQQESARRKERNLIKNDHYLQTIQGKEGEEWVLDALHRSLEILSGDSYSVRGLDEGRALLFIVDGMGKGLSASVTTTLSIAFLNYLIDERIAQGARVELGSLVGDYLRFIQKELLEEEIISAGFYDFDFKRERLSYITFGMPSMLWVNSQGECERIKSSSPPLMKYSLPPLPQEICIQDLEKILLYSDGLNEALLDEETIYGEILEEELLWNRFLSEMNRRFRSRVKDVDDDITAFWVRRVPQNPSASRSYEIKSSLLEVHRLSDTIEEGLESFGIFDLEASTRFMTALTEMLMNAYEHGSLGVERLTKDQLIQEGSYDEYLAKESKPHRRIRVRLRRYEEGEATLLTCEVEDEGRGFDTQTLLQNLRNEPETLTSGRGIRLTKGLVDHLCFKKGGRVSQFTVVAREALFGNEGHHHHHH | not soluble
MDRMDKAAKINIINANVRNAQTGDYYYNPYKIVNKTFTDTDGKQVTLKIGITGVLPTQILVWDKANLEGKVTVDDPMEAVKTIVPQMKAAGADFILVAAHSGIGDNEYTKNEENEGYQIAGIEGVDAVATGHSHADFPNGDGTSFYAKYPGVDDVNGLINGKPVVMAGKFGDHLGIMDVKLTYTDGKWKVVNSKAKLEKIDTKSDIADKALIDMAAHDHDGTILTMFVRKLVRPL | not soluble
MSLGGELSLQIINKNPYKLYMDIKGFGFKTVDSIALSMGIEPDSNFRTKAAILYCLEQKEQNGDTYAFIEDIHQQVEKLLNIKINDIKNYLDKEYYYFDVLRLAKRTTWETEKDISVRLKEKINNSQKLFTNNVIHLIPEIERILRIKYDDKQKELFYKINENNILVLTGFAGTGKSSVLNGLLNLFDKKNITYKLMSPTAKAAKRMEECTGKKASTIHRALGLAEGKFLVNEKNPFAEDVIIIDETSMVDIYLFLAVLKGIKNTTKLLCLGDYGQLESISAGNVLFDMIQGGIPCVKLEKIFRQKEDSSLLNVITNIRNGDNPLKNTHKTYLELGRDCKFWLGKKEQTLSRVLLCYKECLKHFSREDIMVLCPMKKGNSGVNKLNQELQKIANSQNTEELKLKDCAYKKEDLVMHIKNDYNANIFSEDCKDTIAKGIFNGDAGKIEKIDLENQKLYVSYDSGIVEYDNSNLNELMLSYALTIHKVQGSQSKVVIVALDMSHYKMLKRSLLYTAASRCVELLIFICDPKAFSIALNNNQVTHKNTFLGELLKISEGHHHHHH | soluble
MGEDTRVSYQDIKARVLAAIRDNTWPPGAMLPGEVALAQEYGCARATVNRAMRELAEEGILERKRKAGTRVKLAPARQARFSIPVVREEIEALGASYRYALVSRSEEATPKWLAAQLGLGAGDRVLHLVCMHYADERPFQLEQRWINLATVPQAAKKDFSQTGPNEWLVSEVPFTDIRLSFSACRGNRETAEFLGGNETDAHFTVERVTWLGERPVTYARLLFHAGYRMTTTL | not soluble
MGSDKIHHHHHHMIDNIMAILEPVIGRTIKRKISTMSGKKLPFIAGHKLLYTCNLRCDMCPFWRRKDEKLLSLEEEIKMMDSLASAGVSFMGFEGGEPLLRNDLEDILKESHKRFHTSLVTNGWLLKGRASSISRYLDYLFVSIDGRKETHDKQRGVPSSFDHAIEGIKEAKKYVPVAMSTTITTNNMDDIKYVVNLAEELGIGVNIQVSYDYSTADKLSPDRKKLYDLLLDLKKMKEDGAPIVNSKEYFDTLVNSWYYGIPWACKPWSTVNIDPQGRIVMPCYVLNEYAGEKKVWEIDIKELWNTYDWKPYESCNKCSLSCYLEPSIFSWRKPSMVSERIFGSIADYIASIF | not soluble
MSLEVIKHDGPGRLGVIRLEPPVQTPALAGVDFTISPFNSYFNPKEYHDYDFNLAPSIPLSYYTPDEVIEKALKRIETVDYSKFNTFYFPALKRDKYYPRFVELIEENDFDAIYIGNSKVMIKDYRGFVATLRILREKFPNAVLITDLEPFFYPLAVYLGVDAFDVRSLKIYSYEGLGFTPFSPVIWDRPNDPIEFAREMIKIIKIAIQEGKLRYLVENFLPTVMNVGILRIADKEHGDYLEKYTPVHDKTVVFISEHSISRPEVFRWRKRIEERFEPPKGIDLLLIFPCSAKKPYSRSRSHMMYRKVMKEALGEKVHRVHELVVTSPYGVVPREWEWLAKYDIVVTGHWSESEVRFAGELLAQTIEKYPDIPIVAHVEGGYREAVKYAMELVNRDVIFTAVGSSTISKESLDKLKKTLKEFDLRDEGHHHHHH | not soluble
MSLRLKIGSPVFFKQVRPGLHGKPFTLYKFRTMTDERDSKGNLLPDEVRLTKTGRLIRKLSIDELPQLLNVLKGDLSLVGPRPLLMDYLPLYTEKQARRHEVKPGITGWAQINGRNAISWEKKFELDVWYVDNWSFFLDLKILCLTVRKVLVSEGIQQTNHVTAERFTGSGDVSSEGHHHHHH | not soluble
MFMNKPFGSKRCEPFHESEHLCEAFAITEAILARYQRGKRSFTSSEKSGLAALIKRIPYDILVEVLDQSGFTPTSNATPPVDYLAMMEHTMTHGASITHALQYLNDLMTKCTGCPGIRTYYHNPNDDVLADPVHDTAALIDETTAVGKSVVTKQYLNIAGAHYIPLIHGDIVVGCVEVPRFSGNLEKLPSFPSLIRAVTCTAHKFIEEARINWNREKAEAMLQMATRLARDNLDETVLASSIMNTVKSLTESARCSLFLVKDDKLEAHFEDGNVVSIPKGTGIVGYVAQTGETVNIVDAYADDRFNREVDKATGYRTKTILCMPVMYEGTIVAVTQLINKLDLTTESGLRLPRVFGKRDEELFQTFSMFAGASLRNCRINDRLLKEKKKSDVILDVVTVLSNTDIRDVDGIVRHALHGAKKLLNADRSTLFLVDKERNELCSRMADSVAGKEIRFPCGQGIAGTVAASGVGENIQDAYQDPRFNREVDKQLGYRTQTILCEPIILNGEILAVVQLVNKLDTSGEVTVFTEDDRDTFRVFSLFAGISINNSHLLEFAVKAGREVMELNEHRATLFNKNVPSRAVKRVTAITKVEREAVLVCELPSFDVTDVEFDLFRARESTDKPLDVAAAIAYRLLLGSGLPQKFGCSDEVLLNFILQCRKKYRNVPYHNFYHVVDVCQTIHTFLYRGNVYEKLTELECFVLLITALVHDLDHMGLNNSFYLKTESPLGILSSASGNTSVLEVHHCNLAVEILSDPESDVFDGLEGAERTLAFRSMIDCVLATDMAKHGSALEAFLASAADQSSDEAAFHRMTMEIILKAGDISNVTKPFDISRQWAMAVTEEFYRQGDMEKERGVEVLPMFDRSKNMELAKGQIGFIDFVAAPFFQKIVDACLQGMQWTVDRIKSNRAQWERVLETRLSTSSGNNSSTR | not soluble
MKSLIIVNPADCIGCRTCEVACVVAHPSEQELNADVFLPRLKVQRLDSISAPVMCHQCENAPCVGACPVGALTMGEQVVQTNSARCIGCQSCVSACPFGMITIQSLPGDTRQQIVKCDLCEQREEGPACVESCPTQALQLLTERELRRVRQQRIVASGENPL | not soluble
MGSDKIHHHHHHAYGILGVLAITKDEAVLVAVTGVLSVGQLYGADILKITNVEFISLRTFGSVENVDSRIIDLQRQFIDLKKMFEKIIKKILKNLQRLLSSQMFYFSSLQSYDLTRSAQHRDSHDCSDARFFWNRSLHFSFQRYGIDTDNWLLKCMAGSVLVRVVYVGANTGRVALISRLSCERVGTRFNVRGANYLGNVANFVETEQLLLFDEKECSLLQIRGSIPLFWEQPGVNVGSHKVKLRAFETSLPAYHRHLSQLQHRYGEFAIVNLLGRKEGERVLGDAFKTQHKSSHFAPLVDFIDFDYHAQMKISKEAI | not soluble
